Assay [1] addresses human PD-L1 (full-length, expressed on cells) (human) (UniProt Q9NZQ7). Description: immunoreactivity on MC38/mPD-L1-/-/hPD-L1 cells.
For assay [2] the target is unchanged. Description: immunoreactivity, Study 1: MC38-cOVA/eGFP-mPD-L1-/-hPD-L1Tg cells, cell-bound activity against standards.
The target is the same in assay [3]. Description: immunoreactivity, Study 3: MC38-cOVA/eGFP-mPD-L1-/-hPD-L1Tg cells, cell-bound activity against standards.
The target is the same in assay [4]. Description: immunoreactivity, Study 3: LOX-IMVI cells (endogenous human PD-L1), cell-bound activity against standards.
Assay [5] has the same target. Put plainly: immunoreactivity, Study 1: 20 ng 89Zr antibody on 15x10^6 MC38-cOVA/eGFP-mPD-L1-/-hPD-L1Tg cells, gamma counter.
Assay [6] has the same target. Put plainly: immunoreactivity, Study 3: 20 ng 89Zr antibody on 15x10^6 MC38-cOVA/eGFP-mPD-L1-/-hPD-L1Tg cells, gamma counter.
The target is the same in assay [7]. Description: immunoreactivity, Study 3: 20 ng 89Zr antibody on 30x10^6 LOX-IMVI cells (endogenous human PD-L1), gamma counter.
Assay [8] has the same target. Description: flow cytometry, dose titration of staining on untreated LOX-IMVI cells. Background: Flow cytometry measures light scatter and fluorescence of single cells or particles in a stream.
For assay [9] the target is unchanged. Put plainly: flow cytometry, dose titration of staining on untreated MC38-cOVA/eGFP-mPD-L1-/-hPD-L1Tg cells.
Assay [10] has the same target. Put plainly: flow cytometry, dose titration of staining on LOX-IMVI cells treated overnight with 100 ng/mL hIFNγ.
For assay [11] the target is unchanged. Put plainly: flow cytometry, dose titration on LOX-IMVI and MC38-cOVA/eGFP-mPD-L1-/-hPD-L1Tg cells with or without IFNgamma.
Assay [12] shares this target. Put plainly: flow cytometry, ex vivo LOX-IMVI tumor cells (Tumor 1) ~3 weeks post implantation in nude mice, antibody at 20 ug/mL.
For assay [13] the target is unchanged. Put plainly: flow cytometry, ex vivo LOX-IMVI tumor cells (Tumor 2) ~3 weeks post implantation in nude mice, antibody at 20 ug/mL.
The target is the same in assay [14]. Description: flow cytometry, dose titration of staining on MC38-cOVA/eGFP-mPD-L1-/-hPD-L1Tg cells treated overnight with 100 ng/mL mIFNγ.
For assay [15] the target is unchanged. Put plainly: flow cytometry, ex vivo MC38-cOVA/eGFP-mPD-L1-/-hPD-L1Tg tumor cells (Tumor 1) ~3 weeks post implantation in nude mice, antibody at 20 ug/mL.
The target is the same in assay [16]. Put plainly: flow cytometry, ex vivo MC38-cOVA/eGFP-mPD-L1-/-hPD-L1Tg tumor cells (Tumor 2) ~3 weeks post implantation in nude mice, antibody at 20 ug/mL.

As usually defined, the EC50 (read off the curve) is the concentration giving half of the maximal effect. The low end stands for an effect from little substance, the high end for a need for much substance.

Sequence of UniProt Q9NZQ7 (Q9NZQ7 19-290): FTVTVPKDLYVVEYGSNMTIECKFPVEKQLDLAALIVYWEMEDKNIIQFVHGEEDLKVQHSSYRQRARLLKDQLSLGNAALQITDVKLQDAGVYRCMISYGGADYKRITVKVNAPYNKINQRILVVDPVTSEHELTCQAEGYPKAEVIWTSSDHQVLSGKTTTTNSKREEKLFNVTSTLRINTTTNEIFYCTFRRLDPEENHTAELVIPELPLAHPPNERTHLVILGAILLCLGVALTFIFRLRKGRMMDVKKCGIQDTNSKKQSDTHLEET

“89Zr labeled DFO-conjugated isotype control antibody” gave an Immunoreactivity in [1] of 8.8%. Further, the Percent IR (immunoreactivity) is 0.5% in [2], 0.7% in assay [3] and 0.7% in [4]. In addition, the cell pellet activity was 29.6 in [5], 68 in assay [6] and 65.4 in assay [7].

On to “fluorochrome directly conjugated anti-human PD-L1 antibody (eBioscience, clone MIH1)”, for which the EC50 (read off the curve) came out at 20 nM in assay [8], 30 nM in assay [9], 20 nM in assay [10] and 30 nM in assay [14]. This substance yielded an antibody concentration at which median fluorescence intensity reached the plateau in assay [11] of 150 nM. For the same substance, the Mean fluorescence intensity in assay [12] worked out at 8480; in [13], 12100; in assay [15] it was 49600; in assay [16] it was 51400.

These data come from patent US20260151521A1.
